# Measured values taken from paper PMC7616460, “Skraban-Deardorff intellectual disability syndrome-associated mutations in WDR26 impair CTLH E3 complex assembly” (FEBS letters, 2024).
# B1: WDR26 in the CTLH subcomplex of the cryo-EM map EMD-12545 / EMD-19039 (natural protein, human, UniProt Q9H7D7 1-661, looked up)
# chain: MQANGAGGGGGGGGGGGGGGGGGGGQGQTPELACLSAQNGESSPSSSSSAGDLAHANGLLPSAPSAASNNSNSLNVNNGVPGGAAAASSATVAAASATTAASSSLATPELGSSLKKKKRLSQSDEDVIRLIGQHLNGLGLNQTVDLLMQESGCRLEHPSATKFRNHVMEGDWDKAENDLNELKPLVHSPHAIVVRGALEISQTLLGIIVRMKFLLLQQKYLEYLEDGKVLEALQVLRCELTPLKYNTERIHVLSGYLMCSHAEDLRAKAEWEGKGTASRSKLLDKLQTYLPPSVMLPPRRLQTLLRQAVELQRDRCLYHNTKLDNNLDSVSLLIDHVCSRRQFPCYTQQILTEHCNEVWFCKFSNDGTKLATGSKDTTVIIWQVDPDTHLLKLLKTLEGHAYGVSYIAWSPDDNYLVACGPDDCSELWLWNVQTGELRTKMSQSHEDSLTSVAWNPDGKRFVTGGQRGQFYQCDLDGNLLDSWEGVRVQCLWCLSDGKTVLASDTHQRIRGYNFEDLTDRNIVQEDHPIMSFTISKNGRLALLNVATQGVHLWDLQDRVLVRKYQGVTQGFYTIHSCFGGHNEDFIASGSEDHKVYIWHKRSELPIAELTGHTRTVNCVSWNPQIPSMMASASDDGTVRIWGPAPFIDHQNIEEECSSMDS
# notes: WDR26, human; the fitted AlphaFold2 model is of isoform 1 (Q9H7D7-1); subcomplex held WDR26, RANBP9, TWA1, ARMC8, GID4 and YPEL5; also called WDR26 dimer
# Target: the molecule itself
# Experiment: cryo-EM structure; focused refinement (Relion v4.0) of the prior map EMD-12545 over the WDR26-YPEL5 region, 6.7 Å; fitted with AlphaFold2 models
protein,measurement,value
B1,stoichiometry N,2
